Assay results reported in US9029508 (dated 2015).

Biological target: DLL4 (human, UniProt Q9NR61)
Assay: ELISA

Chain of DLL4 (Q9NR61 27-524): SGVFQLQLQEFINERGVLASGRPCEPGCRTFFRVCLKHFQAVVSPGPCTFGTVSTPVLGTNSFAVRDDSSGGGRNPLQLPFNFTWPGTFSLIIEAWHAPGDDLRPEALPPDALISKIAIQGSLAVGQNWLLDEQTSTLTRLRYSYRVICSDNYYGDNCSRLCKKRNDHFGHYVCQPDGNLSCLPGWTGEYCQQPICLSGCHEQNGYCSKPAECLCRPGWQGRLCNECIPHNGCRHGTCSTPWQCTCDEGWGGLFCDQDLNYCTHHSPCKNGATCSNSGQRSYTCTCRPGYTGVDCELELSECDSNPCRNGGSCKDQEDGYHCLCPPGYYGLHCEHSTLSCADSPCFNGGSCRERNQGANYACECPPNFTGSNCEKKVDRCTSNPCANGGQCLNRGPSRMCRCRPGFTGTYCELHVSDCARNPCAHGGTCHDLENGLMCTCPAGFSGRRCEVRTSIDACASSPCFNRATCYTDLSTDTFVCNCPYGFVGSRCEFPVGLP

Binder	EC50 [nM]
DVD516 DLL4 arm (antibody, V domains shown, DVD-Ig inner) VH: EVQLQQSGPELEKPGASVKISCKASGYSFTGYNMNWVKQSNGKSLEWIGNIDPYFGGTNYNQKFKGKATLTVDKSSSTAYMQLKSLTSEDSAVYYCARNYDYDGGCFDYWGQGTTLTVSS VL: QAVVTQESALTTSPGETVTLTCRSSTGAVTTSNYANWVQEKPDHLFTGLIGGTNNRAPGVPARFSGSLIGDKAALTITGAQTEDEAIYFCALWYSNHWVFGGGTKLTVLG	4.33
DVD528 DLL4 arm (antibody, V domains shown, DVD-Ig inner) VH: EVQLQQSGPELEKPGASVKISCKASGYSFTGYNMNWVKQSNGKSLEWIGNIDPYFGGTNYNQKFKGKATLTVDKSSSTAYMQLKSLTSEDSAVYYCARNYDYDGGCFDYWGQGTTLTVSS VL: QAVVTQESALTTSPGETVTLTCRSSTGAVTTSNYANWVQEKPDHLFTGLIGGTNNRAPGVPARFSGSLIGDKAALTITGAQTEDEAIYFCALWYSNHWVFGGGTKLTVLG	0.81
DVD518 DLL4 arm (antibody, V domains shown, DVD-Ig inner) VH: EVQLQQSGPELEKPGASVKISCKASGYSFTGYNMNWVKQSNGKSLEWIGNIDPYFGGTNYNQKFKGKATLTVDKSSSTAYMQLKSLTSEDSAVYYCARNYDYDGGCFDYWGQGTTLTVSS VL: QAVVTQESALTTSPGETVTLTCRSSTGAVTTSNYANWVQEKPDHLFTGLIGGTNNRAPGVPARFSGSLIGDKAALTITGAQTEDEAIYFCALWYSNHWVFGGGTKLTVLG	5.9
DVD531 DLL4 arm (antibody, V domains shown, DVD-Ig outer) VH: EVQLQQSGPELEKPGASVKISCKASGYSFTGYNMNWVKQSNGKSLEWIGNIDPYFGGTNYNQKFKGKATLTVDKSSSTAYMQLKSLTSEDSAVYYCARNYDYDGGCFDYWGQGTTLTVSS VL: QAVVTQESALTTSPGETVTLTCRSSTGAVTTSNYANWVQEKPDHLFTGLIGGTNNRAPGVPARFSGSLIGDKAALTITGAQTEDEAIYFCALWYSNHWVFGGGTKLTVLG	0.57
DVD450 DLL4 arm (antibody, V domains shown, DVD-Ig inner) VH: QVQLVQSGAEVKKPGASVKISCKASGYSFTAYYIHWVKQAPGQGLEWIGYISSYNGATNYNQKFKGRVTFTTDTSTSTAYMELRSLRSDDTAVYYCARDYDYDVGMDYWGQGTLVTVSS VL: DIVMTQSPDSLAVSLGERATISCRASESVDNYGISFMKWFQQKPGQPPKLLIYAASNQGSGVPDRFSGSGSGTDFTLTISSLQAEDVAVYYCQQSKEVPWTFGGGTKVEIKR	1.99
DVD479 DLL4 arm (antibody, DVD-Ig outer) chain 1: EVQLVESGGGLVQPGGSLRLSCAASGFTFTDNWISWVRQAPGKGLEWVGYISPNSGFTYYADSVKGRFTISADTSKNTAYLQMNSLRAEDTAVYYCARDNFGGYFDYWGQGTLVTVSS chain 2: DIQMTQSPSSLSASVGDRVTITCRASQDVSTAVAWYQQKPGKAPKLLIYSASFLYSGVPSRFSGSGSGTDFTLTISSLQPEDFATTYYCQQSYTGTVTFGQGTKVEIKR	1.69
DVD481 DLL4 arm (antibody, DVD-Ig outer) chain 1: EVQLVESGGGLVQPGGSLRLSCAASGFTFTDNWISWVRQAPGKGLEWVGYISPNSGFTYYADSVKGRFTISADTSKNTAYLQMNSLRAEDTAVYYCARDNFGGYFDYWGQGTLVTVSS chain 2: DIQMTQSPSSLSASVGDRVTITCRASQDVSTAVAWYQQKPGKAPKLLIYSASFLYSGVPSRFSGSGSGTDFTLTISSLQPEDFATTYYCQQSYTGTVTFGQGTKVEIKR	3.3
DVD478 DLL4 arm (antibody, DVD-Ig inner) chain 1: EVQLVESGGGLVQPGGSLRLSCAASGFTFTDNWISWVRQAPGKGLEWVGYISPNSGFTYYADSVKGRFTISADTSKNTAYLQMNSLRAEDTAVYYCARDNFGGYFDYWGQGTLVTVSS chain 2: DIQMTQSPSSLSASVGDRVTITCRASQDVSTAVAWYQQKPGKAPKLLIYSASFLYSGVPSRFSGSGSGTDFTLTISSLQPEDFATTYYCQQSYTGTVTFGQGTKVEIKR	2.53
DVD494 DLL4 arm (antibody, V domains shown, DVD-Ig inner) VH: EVQLQQSGPELVKPGASVKMSCKASGYTFTSYVINWVKQKPGQGLEWIGLINPYNDGTKYNEKFKVKATLTSDKSSSTAYMELSSLTSEDSAVYYCASYYYGSRYYFDYWGQGTTLTVSS VL: DIQMTQSSSYLSVSLGGRVTITCKASDHINNWLAWYQQKPGNAPRLLISGATSLETGVPSRFSGSGSGKDYTLSITSLQTEDVATYYCQQYWSIPLTFGAGTKLELKR	39.5
DVD496 DLL4 arm (antibody, V domains shown, DVD-Ig inner) VH: EVQLQQSGPELVKPGASVKMSCKASGYTFTSYVINWVKQKPGQGLEWIGLINPYNDGTKYNEKFKVKATLTSDKSSSTAYMELSSLTSEDSAVYYCASYYYGSRYYFDYWGQGTTLTVSS VL: DIQMTQSSSYLSVSLGGRVTITCKASDHINNWLAWYQQKPGNAPRLLISGATSLETGVPSRFSGSGSGKDYTLSITSLQTEDVATYYCQQYWSIPLTFGAGTKLELKR	5.59
DVD502 DLL4 arm (antibody, V domains shown, DVD-Ig inner) VH: EVQLQQSGPELVKPGASVKMSCKASGYTFTSYVINWVKQKPGQGLEWIGLINPYNDGTKYNEKFKVKATLTSDKSSSTAYMELSSLTSEDSAVYYCASYYYGSRYYFDYWGQGTTLTVSS VL: DIQMTQSSSYLSVSLGGRVTITCKASDHINNWLAWYQQKPGNAPRLLISGATSLETGVPSRFSGSGSGKDYTLSITSLQTEDVATYYCQQYWSIPLTFGAGTKLELKR	3.17
DVD503 DLL4 arm (antibody, V domains shown, DVD-Ig outer) VH: EVQLQQSGPELVKPGASVKMSCKASGYTFTSYVINWVKQKPGQGLEWIGLINPYNDGTKYNEKFKVKATLTSDKSSSTAYMELSSLTSEDSAVYYCASYYYGSRYYFDYWGQGTTLTVSS VL: DIQMTQSSSYLSVSLGGRVTITCKASDHINNWLAWYQQKPGNAPRLLISGATSLETGVPSRFSGSGSGKDYTLSITSLQTEDVATYYCQQYWSIPLTFGAGTKLELKR	0.33
DVD492 DLL4 arm (antibody, V domains shown, DVD-Ig inner) VH: EVQLQQSGPELVKPGASVKMSCKASGYTFTSYVINWVKQKPGQGLEWIGLINPYNDGTKYNEKFKVKATLTSDKSSSTAYMELSSLTSEDSAVYYCASYYYGSRYYFDYWGQGTTLTVSS VL: DIQMTQSSSYLSVSLGGRVTITCKASDHINNWLAWYQQKPGNAPRLLISGATSLETGVPSRFSGSGSGKDYTLSITSLQTEDVATYYCQQYWSIPLTFGAGTKLELKR	1.77

Now those with a lower EC50, led by results:

EC50 [nM]	Binder
0.22	DVD524 DLL4 arm (antibody, V domains shown, DVD-Ig inner) VH: EVQLQQSGPELEKPGASVKISCKASGYSFTGYNMNWVKQSNGKSLEWIGNIDPYFGGTNYNQKFKGKATLTVDKSSSTAYMQLKSLTSEDSAVYYCARNYDYDGGCFDYWGQGTTLTVSS VL: QAVVTQESALTTSPGETVTLTCRSSTGAVTTSNYANWVQEKPDHLFTGLIGGTNNRAPGVPARFSGSLIGDKAALTITGAQTEDEAIYFCALWYSNHWVFGGGTKLTVLG
0.1	DVD517 DLL4 arm (antibody, V domains shown, DVD-Ig outer) VH: EVQLQQSGPELEKPGASVKISCKASGYSFTGYNMNWVKQSNGKSLEWIGNIDPYFGGTNYNQKFKGKATLTVDKSSSTAYMQLKSLTSEDSAVYYCARNYDYDGGCFDYWGQGTTLTVSS VL: QAVVTQESALTTSPGETVTLTCRSSTGAVTTSNYANWVQEKPDHLFTGLIGGTNNRAPGVPARFSGSLIGDKAALTITGAQTEDEAIYFCALWYSNHWVFGGGTKLTVLG
0.22	DVD530 DLL4 arm (antibody, V domains shown, DVD-Ig inner) VH: EVQLQQSGPELEKPGASVKISCKASGYSFTGYNMNWVKQSNGKSLEWIGNIDPYFGGTNYNQKFKGKATLTVDKSSSTAYMQLKSLTSEDSAVYYCARNYDYDGGCFDYWGQGTTLTVSS VL: QAVVTQESALTTSPGETVTLTCRSSTGAVTTSNYANWVQEKPDHLFTGLIGGTNNRAPGVPARFSGSLIGDKAALTITGAQTEDEAIYFCALWYSNHWVFGGGTKLTVLG
0.12	DVD447 DLL4 arm (antibody, V domains shown, DVD-Ig outer) VH: QVQLVQSGAEVKKPGASVKISCKASGYSFTAYYIHWVKQAPGQGLEWIGYISSYNGATNYNQKFKGRVTFTTDTSTSTAYMELRSLRSDDTAVYYCARDYDYDVGMDYWGQGTLVTVSS VL: DIVMTQSPDSLAVSLGERATISCRASESVDNYGISFMKWFQQKPGQPPKLLIYAASNQGSGVPDRFSGSGSGTDFTLTISSLQAEDVAVYYCQQSKEVPWTFGGGTKVEIKR
0.2	DVD443 DLL4 arm (antibody, V domains shown, DVD-Ig outer) VH: QVQLVQSGAEVKKPGASVKISCKASGYSFTAYYIHWVKQAPGQGLEWIGYISSYNGATNYNQKFKGRVTFTTDTSTSTAYMELRSLRSDDTAVYYCARDYDYDVGMDYWGQGTLVTVSS VL: DIVMTQSPDSLAVSLGERATISCRASESVDNYGISFMKWFQQKPGQPPKLLIYAASNQGSGVPDRFSGSGSGTDFTLTISSLQAEDVAVYYCQQSKEVPWTFGGGTKVEIKR
0.3	DVD476 DLL4 arm (antibody, DVD-Ig inner) chain 1: EVQLVESGGGLVQPGGSLRLSCAASGFTFTDNWISWVRQAPGKGLEWVGYISPNSGFTYYADSVKGRFTISADTSKNTAYLQMNSLRAEDTAVYYCARDNFGGYFDYWGQGTLVTVSS chain 2: DIQMTQSPSSLSASVGDRVTITCRASQDVSTAVAWYQQKPGKAPKLLIYSASFLYSGVPSRFSGSGSGTDFTLTISSLQPEDFATTYYCQQSYTGTVTFGQGTKVEIKR
0.18	DVD501 DLL4 arm (antibody, V domains shown, DVD-Ig outer) VH: EVQLQQSGPELVKPGASVKMSCKASGYTFTSYVINWVKQKPGQGLEWIGLINPYNDGTKYNEKFKVKATLTSDKSSSTAYMELSSLTSEDSAVYYCASYYYGSRYYFDYWGQGTTLTVSS VL: DIQMTQSSSYLSVSLGGRVTITCKASDHINNWLAWYQQKPGNAPRLLISGATSLETGVPSRFSGSGSGKDYTLSITSLQTEDVATYYCQQYWSIPLTFGAGTKLELKR
0.32	DVD506 DLL4 arm (antibody, V domains shown, DVD-Ig inner) VH: EVQLQQSGPELVKPGASVKMSCKASGYTFTSYVINWVKQKPGQGLEWIGLINPYNDGTKYNEKFKVKATLTSDKSSSTAYMELSSLTSEDSAVYYCASYYYGSRYYFDYWGQGTTLTVSS VL: DIQMTQSSSYLSVSLGGRVTITCKASDHINNWLAWYQQKPGNAPRLLISGATSLETGVPSRFSGSGSGKDYTLSITSLQTEDVATYYCQQYWSIPLTFGAGTKLELKR
0.09	DVD499 DLL4 arm (antibody, V domains shown, DVD-Ig outer) VH: EVQLQQSGPELVKPGASVKMSCKASGYTFTSYVINWVKQKPGQGLEWIGLINPYNDGTKYNEKFKVKATLTSDKSSSTAYMELSSLTSEDSAVYYCASYYYGSRYYFDYWGQGTTLTVSS VL: DIQMTQSSSYLSVSLGGRVTITCKASDHINNWLAWYQQKPGNAPRLLISGATSLETGVPSRFSGSGSGKDYTLSITSLQTEDVATYYCQQYWSIPLTFGAGTKLELKR
